Data from article PMC5566378.

Target: human IL-17RA extracellular domain (human), Q96F46
Assay: SPR
Settings: ligand; chains chain; biotin on the Avi-tag (E. coli BirA), for the SPR measurements only; remark: other sources report otherwise

Kd: 0.136 µM
B1: human IL-17F homodimer, Q96PD4 31-163 (protein)
chain: RKIPKVGHTFFQKPESCPPVPGGSMKLDIGIINENQRVSMSRNIESRSTSPWNYTVTWDPNRYPSEVVQAQCRNLGCINAQGKEDISMNSVPIQQETLVVRRKHQGCSVSFQLEKVLVTVGCTCVTPVIHHVQ
